Data: PMC8755798 (Nature Communications, 2022)

Molecular target: the molecule itself
Experiment: cryo-EM structure

B1: mycobacterial proteasome ATPase (Mpa), Mycobacterium tuberculosis, wild type (enzyme)
chain: MGESERSEAFGIPRDSPLSSGDAAELEQLRREAAVLREQLENAVGSHAPTRSARDIHQLEARIDSLAARNSKLMETLKEARQQLLALREEVDRLGQPPSGYGVLLATHDDDTVDVFTSGRKMRLTCSPNIDAASLKKGQTVRLNEALTVVEAGTFEAVGEISTLREILADGHRALVVGHADEERVVWLADPLIAEDLPDGLPEALNDDTRPRKLRPGDSLLVDTKAGYAFERIPKAEVEDLVLEEVPDVSYADIGGLSRQIEQIRDAVELPFLHKELYREYSLRPPKGVLLYGPPGCGKTLIAKAVANSLAKKMAEVRGDDAHEAKSYFLNIKGPELLNKFVGETERHIRLIFQRAREKASEGTPVIVFFDEMDSIFRTRGTGVSSDVETTVVPQLLSEIDGVEGLENVIVIGASNREDMIDPAILRPGRLDVKIKIERPDAEAAQDIYSKYLTEFLPVHADDLAEFDGDRSACIKAMIEKVVDRMYAEIDDNRFLEVTYANGDKEVMYFKDFNSGAMIQNVVDRAKKNAIKSVLETGQPGLRIQHLLDSIVDEFAENEDLPNTTNPDDWARISGKKGERIVYIRTLVTGKSSSASRAIDTESNLGQYL
- stoichiometry N: 6
